# T1: Fas-Fc / Fas ligand binding (Mus musculus, UniProt P25446)
# T1 construct: purchased R&D
# T1 sequence (P25446 22-169 limits assumed): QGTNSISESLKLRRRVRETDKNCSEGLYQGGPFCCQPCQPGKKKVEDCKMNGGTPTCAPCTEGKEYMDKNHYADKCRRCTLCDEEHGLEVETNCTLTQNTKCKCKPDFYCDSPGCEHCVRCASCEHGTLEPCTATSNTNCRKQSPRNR
# T2: Fas on Jurkat cells (Homo sapiens, UniProt P25445)
# T2 construct: endogenous in cells; host or cells: Jurkat
# T2 sequence (P25445 26-335): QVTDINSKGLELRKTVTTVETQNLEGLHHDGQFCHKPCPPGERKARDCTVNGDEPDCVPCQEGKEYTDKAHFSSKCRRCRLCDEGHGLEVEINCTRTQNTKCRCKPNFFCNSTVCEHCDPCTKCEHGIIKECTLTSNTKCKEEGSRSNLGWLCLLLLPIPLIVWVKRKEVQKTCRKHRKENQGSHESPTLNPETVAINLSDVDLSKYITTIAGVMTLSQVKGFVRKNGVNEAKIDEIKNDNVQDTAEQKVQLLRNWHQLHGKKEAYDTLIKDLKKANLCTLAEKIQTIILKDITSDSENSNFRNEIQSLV
# T3: Fas-Fc / FasL binding (Mus musculus, UniProt P25446)
# T3 construct: purchased R&D
# T3 sequence (P25446 22-169 limits assumed): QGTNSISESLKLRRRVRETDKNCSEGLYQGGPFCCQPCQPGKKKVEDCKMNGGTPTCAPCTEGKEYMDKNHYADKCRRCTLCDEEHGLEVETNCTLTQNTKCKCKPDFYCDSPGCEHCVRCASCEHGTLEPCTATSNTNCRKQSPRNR
# What was measured:
# [1] = molecular target: T1, Fas-Fc / Fas ligand binding; experiment: Competition ELISA: coated Fas ligand, Fas-Fc added with increasing amounts of polypeptide; conditions: Fas ligand 1 μg/ml coated, Fas-Fc 1 μg/ml
# Method: (§1) This antibody also recognizes Fas-Fc which is also tagged at the C-terminus by His. In FIG. 2b, a fixed amount of purified recombinant Fas-ligand was added to Fas-Fc in the absence or presence of increasing amounts of AlphaMet as indicated. Samples were subjected to pull down using proteinA agarose followed by Western blot using a polyclonal rabbit anti-FasL antibody. […] Fas ligand (1 μg/ml) was coated in the wells of a microtiter plate (triplicate wells) then 1 μg/ml of Fas-Fc was added in the absence or presence of an increasing amount of the indicated polypeptide. A 13 mer YLGA polypeptide derived from FasL also was synthesized and used. The control peptide was a scrambled 13 mer. Anti human IgM-HRP conjugates were used to detect the bound Fas-Fc. […] One-way ANOVA was carried out for determination of statistical significance. […] Cells (3×10^5) were plated in 24-well plates having Poly-L-Lysine pre-treated cover glass. 2 μg/ml of Fas ligand was added and the cells were incubated for 30 min on ice. Cells were then washed by PBS twice, and were subjected to immunostaining using anti-Fas ligand antibody and fluorescent microscopy. In Frame A, Fas ligand was not added, in B, only Fas ligand was added, in C-F, Fas ligand was added with different polypeptides as follows: AlphaMet, 12 mer YLGA, control peptide, and YLGA mutated AlphaMet, respectively.
# ELISA. Synthesized polypeptides (Genemed Synthesis, Inc. South San Francisco, Calif.) were dissolved in water and diluted in the coating buffer (0.05M of Sodium Carbonate, 0.02% of Sodium Azide, pH 9.6) to a final concentration of 1 ug/ml. One hundred microliter aliquots were added to coat each well of a 96-well microtitre plate. The coated plates were then washed with PBS-Tween (0.5%) three times. The plates were blotted and dried by tapping upside down on tissue paper. They were blocked using 200 μl of 1% of BSA in PBS solution followed by a 2 hour incubation. Plates were washed another three times, Fas-Fc was added, and the plates were incubated for another 2 hours. The plates were washed three times and anti-human IgM Fc HRP conjugates were included at a final concentration of 1:20,000, and incubated for 1 hour. Plates were washed three times again and ready-to-use TMD was added and incubated for 30 minutes. The color reaction was stopped by 2M of Sulfuric Acid. Plates were applied to color read at a wave length of 450 nm.
# Fas on Jurkat cells = molecular target: T2, Fas on Jurkat cells; experiment: Immunostaining of cell surface FasL binding on Jurkat cells; type: cell-based; conditions: 4° C. 30 minutes
# Method: as §1, with “In Frame A, Fas ligand was not added, in B, only Fas ligand was added, in C-F, Fas ligand was added with different polypeptides as follows: AlphaMet, 12 mer YLGA, control peptide, and YLGA mutated AlphaMet, respectively.” left out
# Abrogation of Fas-FasL binding by the presence of the synthetic polypeptides corresponding to the AlphaMet YLGA (SEQ ID NO:1) motif was then analyzed. […]
# [2] = tested on: Caspase 3 activation in Jurkat cells; experiment: Cleaved Caspase 3 Western blot in apoptotic Jurkat cells; type: cell-based, human; conditions: Fas-ligand
# Method: For FIG. 4a, Jurkat cells (1.5×10^5) were overnight treated in triplicate with 5 ng/ml of crosslinked human Fas ligand with or without 5 μg/ml of recombinant AlphaMet or 1 μg/ml of the indicated polypeptides. Percent apoptosis was determined by Trypan Blue staining using a hemocytometer. The data are representative and were repeated at least four times. […] The 17 kDa fragment of cleaved Caspase 3 is visualized by this antibody. The blot was reprobed for β-actin as a loading control. For FIG. 4c, serum deprived Hepa 1-6 cells (3×10^5) were overnight treated with 1 μg/ml of crosslinked mouse Fas ligand with or without AlphaMet or the indicated polypeptide. Media were collected and centrifuged to pellet the dead cells. […] The data in FIG. 4c represents three independent experiments.
# To provide biochemical evidence that AlphaMet inhibited FasL-mediated apoptosis, the activation of Caspase 3, a down stream executioner in Fas mediated apoptosis, was analyzed in apoptotic Jurkat cells.
# Fas-Fc / FasL binding = molecular target: T3, Fas-Fc / FasL binding; experiment: Competition pull down with Fas-Fc, recombinant AlphaMet and recombinant FasL
# Method: as §1, with “respectively. […]” for “respectively.”
Molecule,inhibition of FasL binding to Fas-Fc (ELISA) [1],cell surface FasL binding to Fas (Fas on Jurkat cells),Caspase 3 activation (17 kDa cleaved form) [2],"FasL binding to Fas in pull down (Fas-Fc / FasL binding; fixed FasL, increasing amounts of AlphaMet)",binding of AlphaMet to Fas in presence of FasL (Fas-Fc / FasL binding; increasing amounts of FasL)
HHIYLGATNYIY [12 mer],significantly inhibited FasL binding,,,,
YLGA [YLGA 4 mer],"lower, yet significant inhibition",,,,
"alpha subunit of Met (AlphaMet), amino acid residues 1 to 306, His-tagged (receptor, mouse) MKAPTVLAPGILVLLLSLVQRSHGECKEALVKSEMNVNMKYQLPNFTAETPIQNVVLHGHHIYLGATNYIYVLNDKDLQKVSEFKTGPVLEHPDCLPCRDCSSKANSSGGVWKDNINMALLVDTYYDDQLISCGSVNRGTCQRHVLPPDNSADIQSEVHCMFSPEEESGQCPDCVVSALGAKVLLSEKDRFINFFVGNTINSSYPPGYSLHSISVRRLKETQDGFKFLTDQSYIDVLPEFLDSYPIKYIHAFESNHFIYFLTVQKETLDAQTFHTRIIRFCSVDSGLHSYMEMPLECILTEKRRKRHHHHHH",,blocked,markedly reduced,blocked the FasL binding to Fas,completely abrogated by increasing amounts of FasL
